# B1: Rho-related GTP-binding protein RhoE (Mus musculus), P61588 (parent)
# chain: MKERRASQKLSSKSIMDPNQNVKCKIVVVGDSQCGKTALLHVFAKDCFPENYVPTVFENYTASFEIDTQRIELSLWDTSGSPYYDNVRPLSYPDSDAVLICFDISRPETLDSVLKKWKGEIQEFCPNTKMLLVGCKSDLRTDVSTLVELSNHRQTPVSYDQGANMAKQIGAATYIECSALQSENSVRDIFHVATLACVNKTNKNVKRNKSQRATKRISHMPSRPELSAVATDLRKDKAKSCTVM
# Variants of: B1
# Settings: with rhg05_human ARHGAP5, Q13017
# Chain of rhg05_human ARHGAP5, Q13017 (Q13017 whole entry): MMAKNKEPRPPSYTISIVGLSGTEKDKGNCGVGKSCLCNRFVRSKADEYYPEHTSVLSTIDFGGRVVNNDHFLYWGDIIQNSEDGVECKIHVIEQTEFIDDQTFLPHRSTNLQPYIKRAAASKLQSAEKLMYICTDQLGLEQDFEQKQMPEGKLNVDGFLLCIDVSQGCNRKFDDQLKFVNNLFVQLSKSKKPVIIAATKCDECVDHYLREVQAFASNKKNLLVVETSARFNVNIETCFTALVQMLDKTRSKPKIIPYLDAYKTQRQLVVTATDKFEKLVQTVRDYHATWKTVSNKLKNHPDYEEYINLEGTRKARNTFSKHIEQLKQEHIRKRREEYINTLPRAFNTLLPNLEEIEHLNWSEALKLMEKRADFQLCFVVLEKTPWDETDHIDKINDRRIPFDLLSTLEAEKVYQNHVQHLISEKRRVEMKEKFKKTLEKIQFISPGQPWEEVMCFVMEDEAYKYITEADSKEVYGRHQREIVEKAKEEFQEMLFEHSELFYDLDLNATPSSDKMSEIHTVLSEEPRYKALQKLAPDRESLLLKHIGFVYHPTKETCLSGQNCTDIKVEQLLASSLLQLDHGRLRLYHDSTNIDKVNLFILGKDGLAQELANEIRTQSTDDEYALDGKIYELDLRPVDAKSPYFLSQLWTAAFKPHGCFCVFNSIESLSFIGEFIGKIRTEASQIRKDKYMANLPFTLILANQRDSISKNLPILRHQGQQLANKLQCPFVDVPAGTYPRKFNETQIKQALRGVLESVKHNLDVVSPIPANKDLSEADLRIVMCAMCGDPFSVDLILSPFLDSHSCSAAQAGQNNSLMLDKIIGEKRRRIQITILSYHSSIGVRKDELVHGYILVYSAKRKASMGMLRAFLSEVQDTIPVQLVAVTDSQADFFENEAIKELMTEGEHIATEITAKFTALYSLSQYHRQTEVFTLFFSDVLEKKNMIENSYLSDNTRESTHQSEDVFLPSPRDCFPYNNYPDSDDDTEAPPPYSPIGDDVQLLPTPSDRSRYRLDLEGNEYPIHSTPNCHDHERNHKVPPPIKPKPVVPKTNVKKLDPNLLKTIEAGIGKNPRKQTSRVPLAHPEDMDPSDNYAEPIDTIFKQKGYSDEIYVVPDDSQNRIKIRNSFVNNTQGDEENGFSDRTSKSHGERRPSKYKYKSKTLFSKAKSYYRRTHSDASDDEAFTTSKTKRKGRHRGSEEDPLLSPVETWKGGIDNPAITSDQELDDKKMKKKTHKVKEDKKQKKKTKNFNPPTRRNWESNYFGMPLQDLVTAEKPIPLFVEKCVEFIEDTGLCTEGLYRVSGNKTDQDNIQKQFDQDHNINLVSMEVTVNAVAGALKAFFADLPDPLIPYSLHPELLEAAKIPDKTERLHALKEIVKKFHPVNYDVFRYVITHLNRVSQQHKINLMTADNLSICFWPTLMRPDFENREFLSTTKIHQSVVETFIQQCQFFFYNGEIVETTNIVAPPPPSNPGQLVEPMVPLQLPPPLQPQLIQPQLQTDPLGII
row,effect of a mutation on the interaction,Variant
1,disrupting interaction strength,MKERRASQKLSSKSIMDPNQNVKCKIVVVGDSQCGKTALLHVFAKDCFPENYVPVVFENYTASFEIDTQRIELSLWDTSGSPYYDNVRPLSYPDSDAVLICFDISRPETLDSVLKKWKGEIQEFCPNTKMLLVGCKSDLRTDVSTLVELSNHRQTPVSYDQGANMAKQIGAATYIECSALQSENSVRDIFHVATLACVNKTNKNVKRNKSQRATKRISHMPSRPELSAVATDLRKDKAKSCTVM [T55V]

# Variants of: B1
# Settings: with 1433b_human YWHAB
row,effect of a mutation on the interaction,Variant
1,disrupting interaction strength,MKERRASQKLSSKSIMDPNQNVKCKIVVVGDSQCGKTALLHVFAKDCFPENYVPTVFENYTASFEIDTQRIELSLWDTSGSPYYDNVRPLSYPDSDAVLICFDISRPETLDSVLKKWKGEIQEFCPNTKMLLVGCKSDLRTDVSTLVELSNHRQTPVSYDQGANMAKQIGAATYIECSALQSENSVRDIFHVATLACVNKTNKNVKRNKAQRAAKRIAHMPSRPELSAVATDLRKDKAKSCTVM [S210A;T214A;S218A]

# Variants of: B1
# Settings: with 1433b_human YWHAB
# Remark: another data set of the same source
row,effect of a mutation on the interaction,Variant
1,disrupting interaction strength,MKERRAAQKLASKSIMDPNQNVKCKIVVVGDSQCGKTALLHVFAKDCFPENYVPTVFENYTASFEIDTQRIELSLWDTSGSPYYDNVRPLSYPDSDAVLICFDISRPETLDSVLKKWKGEIQEFCPNTKMLLVGCKSDLRTDVSTLVELSNHRQTPVSYDQGANMAKQIGAATYIECSALQSENSVRDIFHVATLACVNKTNKNVKRNKAQRAAKRIAHMPARPELSAVATDLRKDKAKACTVM [S7A;S11A;S210A;T214A;S218A;S222A;S240A]
